The record followed here is the nanobody polyreactivity screen of Harvey et al. (2022).

This series can be described thus: yeast display, Sf9 membrane polyspecificity reagent, FACS + sequencing; frameworks hold sequencing errors. The method, boiled down: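 Synthetic nanobody libraries on Saccharomyces cerevisiae BJ5465 were galactose-induced for 36–48 hours, stained 1 hour at 4 °C with 10% biotinylated, detergent-solubilized Sf9 membrane reagent and enriched on streptavidin microbeads. FACS then separated cells into low and high (top ~1%) gates by anti-HA (expression) and streptavidin (reagent binding) fluorescence. Genes were colony-PCR amplified, MiSeq 2 × 250 sequenced and CDR-length filtered. A clone's polyreactivity label is that of its gate of origin.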
As to “QVQLVESGGGLVQAGGSLRLSCAASGSTFAYNAMGWYRQAPGKERELVARISSSGDITYYADSVKGRFTISRDNAKNTVYLQMNCLKPEDTAVYYCAKRYLTRYKGYYYWGQGTQVTVSS”, the “polyreactivity (PSR sort gate)” value is on record as “high polyreactivity”.

In the case of “QVQLVESGGGLVQAGGSLRLSCAASGSTFAYNDMGWYRQAQGKERELVADIRSGGNTYADSVKGRFTISRDNAKNTVYLQMNSLKPVDTAVYYCAVDGGEFSSYGYWGQGTQLTVSS”, the “polyreactivity (PSR sort gate)” value is listed as “low polyreactivity”.

Turning to “QVQLVESGGGLVQAGGSLRLSCAASGSTFAYNTMGWYRQAPGKERELVAAISQRGGSTYADSVKGRFTISRDNAKNTVYLQMNSLKPEETAVYYCAAVGYTYKFDYWGQGTQVTVSS”, the “polyreactivity (PSR sort gate)” value is reported as “low polyreactivity”.

Regarding “QVQLVESGGGLVQAGGSLRLSCAASGSTFAYYAMGWYRQAPGKERELVAAISRTGGSTYYADSVKGRFTISRDNAKNTVYLQMNSLKPEDTAVYYCNARAPVGTFDYDYWGQGTQVTVSS”, the “polyreactivity (PSR sort gate)” value is on record as “low polyreactivity”.

Take “QVQLVESGGGLVQAGGSLRLSCAASGSTFAYYAMGWYRQAPGKERELVAAISSGGSTYYADSVKGRFTISRDNAKNTVYLQMNSLKPEDTAVYYCNKLWVGKFKRYEFGYWGQGTQVTVSS”: the “polyreactivity (PSR sort gate)” value is “low polyreactivity”.

For the sequence “QVQLVESGGGLVQAGGSLRLSCAASGSTFAYYAMGWYRQAPGKERELVAAITWSGGSTSYADSVKGRFTISRDNAKNTVYLQMNSLKPEDTGVYYCNADDKPLDWREYNYWGQGTQVTVSS”, the “polyreactivity (PSR sort gate)” value is “low polyreactivity”.

Take “QVQLVESGGGLVQAGGSLRLSCAASGSTFAYYAMGWYSPAPGKERELVAAISSSGGRTYYADSVKGRFTISRDNAKNTVYLQMYSLKPEDTAVYYCAARSPYYSASVRYDYWGQGTQVTVSS”: the “polyreactivity (PSR sort gate)” value is “high polyreactivity”.

For “QVQLVESGGGLVQAGGSLRLSCAASGSTFAYYTMGWYRQAPGKERELVAAITWSGGRTFYADSVKGRFTISRDNAKNTVYLQMNSLKPEDTAVYYCNTDDSHRPPRTPDDYNYWGQGTQVTVSS”, the “polyreactivity (PSR sort gate)” value is “high polyreactivity”.

In the case of “QVQLVESGGGLVQAGGSLRLSCAASGSTFAYYVMGWYRQAPGTERELVAAITSSGGRTYYADSVKGRFTISRDNAKNTVYLQMNSLKPEDTAVYYCAKVSQRGVDNSDYDYWGQGTQVTVSS”, the “polyreactivity (PSR sort gate)” value is reported as “high polyreactivity”.

“QVQLVESGGGLVQAGGSLRLSCAASGSTFCFNAMGWSRQAPGKEREMVAAIPSRGGSTYYADSVKGRFTSSRDNAKKTVYLQMKSLKPEDTAVYYCASDYFGFSYAGYNYWGQGTQVTVSS”: the “polyreactivity (PSR sort gate)” value was “low polyreactivity”.

As for “QVQLVESGGGLVQAGGSLRLSCAASGSTFDANTMGWYRQAPGKERELVAAISSNGGRTYYADSVKGRFTISRDNAKNTVYLLMNSLKPEDTAVYYCAASSYYRYRETYDYWGLGTQVTVSS”, the “polyreactivity (PSR sort gate)” value is on record as “high polyreactivity”.

For the sequence “QVQLVESGGGLVQAGGSLRLSCAASGSTFDAYAMGWYRQAPGKERELVAAITNAGSTNYADSVKGRFTISRDNAKNTVYLQMNSLKPEDTAVFYCAADVSRWLDYGYDYWGQGTQVTVSS”, the “polyreactivity (PSR sort gate)” value is given as “low polyreactivity”.

As to “QVQLVESGGGLVQAGGSLRLSCAASGSTFDDNALGWYRQAPGKERELVAAISSRGSTYYADSVKGLFTISRDNAKNTVYLQMNSLKPEDTAVYYCAKRTYRYYGLNAYYYWGQGTQVTVSS”, the “polyreactivity (PSR sort gate)” value is recorded as “high polyreactivity”.

“QVQLVESGGGLVQAGGSLRLSCAASGSTFDDNAMGWYRQAPGKERELVASINYSTGSTYYADSVKGRFTISRDNAKNTVYLQMNSLKPEDTAVYYCAKDLRRYLSWWYRYPYDYWGQGTQVTVSS”: the “polyreactivity (PSR sort gate)” value is on record as “low polyreactivity”.

Take “QVQLVESGGGLVQAGGSLRLSCAASGSTFDDNAMGWYRQAPGKERELVASITYRGGSTYYADSVKGRFTISRDNAKNTVYLQMNSLKPEDTAVYYCAKGHYFKYDYWGQGTQVTVSS”: the “polyreactivity (PSR sort gate)” value was “low polyreactivity”.

As to “QVQLVESGGGLVQAGGSLRLSCAASGSTFDDYAMGWYRQAPGKERELVAAISYSGGSTYYADSVKGRFTISRDNAKNTVYLQMNSLKPEDTAVYYCAADDLYTDYETWWRRGDYCGQGTQVTVSS”, the “polyreactivity (PSR sort gate)” value is “low polyreactivity”.

Turning to “QVQLVESGGGLVQAGGSLRLSCAASGSTFDFNAMGWYRQAPGKERELVAAITGSDGNTYYADSVKGRFTISRDNAKNNVYLQMNTLTPEDTAVYYFAADFSWWSKYVVLYDYWGQGTQVTVSS”, the “polyreactivity (PSR sort gate)” value is given as “low polyreactivity”.

Turning to “QVQLVESGGGLVQAGGSLRLSCAASGSTFDFYAMGWYRQAPGKERELVAAISKSGGSTYYADSVKGRFTISRDTAKNTVYLQMNSLKPEDTAVYYCAAYVSYRMYWGQGTQVTVST”, the “polyreactivity (PSR sort gate)” value is recorded as “high polyreactivity”.

As to “QVQLVESGGGLVQAGGSLRLSCAASGSTFDGNAMGWNRQAPGKERELVAAITRAGRTSYADSVKGRFTISRDNAKNTVYLQMNCLKPEDTAVFYCAKGGYDYWGQGTQVTVSS”, the “polyreactivity (PSR sort gate)” value is “low polyreactivity”.

Take “QVQLVESGGGLVQAGGSLRLSCAASGSTFDGNAMGWYRQAPGKERELDAAISDGDSTTYADSVKGRFTISRDNAKNTVYLQMNSLKPEDTAVYYCNADVARSKSQASAYDYWGQVTQVTVSS”: the “polyreactivity (PSR sort gate)” value is reported as “low polyreactivity”.

In the case of “QVQLVESGGGLVQAGGSLRLSCAASGSTFDGYAMGWYRQAPGKERELVAAITSSDGSTYYADSVKGRFTISRDNAKNTVYLQMNSLKPEDTAVSDCNAEGYDWEFGYWGQGTQVTVSS”, the “polyreactivity (PSR sort gate)” value is recorded as “low polyreactivity”.

On to “QVQLVESGGGLVQAGGSLRLSCAASGSTFDINAMGWYRQAPGKERELFASITFSGGSTYYADSVKGRITISRDYEKNNVYLQMNSLKPEDTAVYYCAADSSGEYPGGYWGQGTQVTVSS”, for which the “polyreactivity (PSR sort gate)” value is listed as “low polyreactivity”.

Consider “QVQLVESGGGLVQAGGSLRLSCAASGSTFDINAMGWYRQAPGKERELVASITFCGGSTYYADSVKGRFTISRDNAKNTVYLEMNSLKPEDTAVYYCAADSSGEYPGGYWGQGTQVTVSS”, for which the “polyreactivity (PSR sort gate)” value is “low polyreactivity”.

As for “QVQLVESGGGLVQAGGSLRLSCAASGSTFDIYAMGWYRQAPGKERELVAAITFSGGSTYYADSVKGRFTISRDNAKNTVYLQMNSLKPEDTAVDYCAARNDYYKTFSGYDYWGQGTQVTVSS”, the “polyreactivity (PSR sort gate)” value is recorded as “low polyreactivity”.

“QVQLVESGGGLVQAGGSLRLSCAASGSTFDKYAMGWYRQAPGKERELVAVISGSGGRTYYADSVKGRFTISRDNAKNTVYLQMNSLKPEDTAVYYCAARGSFKKGYWGQGTQVTVSS”: the “polyreactivity (PSR sort gate)” value is on record as “high polyreactivity”.

As to “QVQLVESGGGLVQAGGSLRLSCAASGSTFDNYALGWYRQAPGKERELVAAINWSGSSTYYADSVKGRFTISRDNAKNTVYLQMNSLKPEDTAVYYCNKTGVTPKTATDGDYWGQGTQVTVSS”, the “polyreactivity (PSR sort gate)” value is on record as “low polyreactivity”.

For the sequence “QVQLVESGGGLVQAGGSLRLSCAASGSTFDPNAMGWYRQAPGKERELVAAITGRGGSTYYADSVKGRFTISRDTAKNTVYLQMNSLKPEDTAVYYCAAEYLGSIDTSYNYWGQGTQVTVSS”, the “polyreactivity (PSR sort gate)” value is recorded as “low polyreactivity”.

For “QVQLVESGGGLVQAGGSLRLSCAASGSTFDPNAMGWYRQAPRKEREFVAAIRVSGDNTYYADSVKGRFTISRDNAKNTVYLLMNSLKPEDTAVYYCAATGTVLGSVDYWGQGTQVTVSS”, the “polyreactivity (PSR sort gate)” value is listed as “low polyreactivity”.

Regarding “QVQLVESGGGLVQAGGSLRLSCAASGSTFDPNTMGWYRQAPGKERELVAAITSSTASTYYADSVKGRFTISRDNAKNTVYLQMNSLKPEDTAVYYCAADSEQDNLRYYRWVWYYYWGQGTQVTVSS”, the “polyreactivity (PSR sort gate)” value is “low polyreactivity”.

As for “QVQLVESGGGLVQAGGSLRLSCAASGSTFDPYAMGWYRQAPGKDRELVAAISSDGSTYYADSVKGRFTISRDNAKNTVYLQMNSLKPEYTAVYYCAADPFYWYRSVRGEYWGQGTQVTVSS”, the “polyreactivity (PSR sort gate)” value was “low polyreactivity”.
